# Reference: patent US20080020978A1 (Amgen, published 2008)
# Substitutions are numbered along the chain they refer to. Bridge positions count the residues as written; N and C are the ends. Square brackets hold non-standard residues; d marks the D form. Oic = O=C(O)[C@@H]1C[C@@H]2CCCC[C@@H]2N1; 1Nal = N[C@@H](Cc1cccc2ccccc12)C(=O)O; hArg = N=C(N)NCCCC[C@H](N)C(=O)O; Tic = O=C(O)[C@@H]1Cc2ccccc2CN1; Cit = NC(=O)NCCC[C@H](N)C(=O)O; Nle = CCCC[C@H](N)C(=O)O
# B1: SEQ ID NO 940 (peptide)
# peptide: Ac-WVTH[Cit]LAGLLS[Cit]SGGV[Nle]RKNFVPTDVGPFAF-NH2
# SMILES: CCCC[C@H](NC(=O)[C@@H](NC(=O)CNC(=O)CNC(=O)[C@H](CO)NC(=O)[C@H](CCCNC(N)=O)NC(=O)[C@H](CO)NC(=O)[C@H](CC(C)C)NC(=O)[C@H](CC(C)C)NC(=O)CNC(=O)[C@H](C)NC(=O)[C@H](CC(C)C)NC(=O)[C@H](CCCNC(N)=O)NC(=O)[C@H](Cc1c[nH]cn1)NC(=O)[C@@H](NC(=O)[C@@H](NC(=O)[C@H](Cc1c[nH]c2ccccc12)NC(C)=O)C(C)C)[C@@H](C)O)C(C)C)C(=O)N[C@@H](CCCNC(=N)N)C(=O)N[C@@H](CCCCN)C(=O)N[C@@H](CC(N)=O)C(=O)N[C@@H](Cc1ccccc1)C(=O)N[C@H](C(=O)N1CCC[C@H]1C(=O)N[C@H](C(=O)N[C@@H](CC(=O)O)C(=O)N[C@H](C(=O)NCC(=O)N1CCC[C@H]1C(=O)N[C@@H](Cc1ccccc1)C(=O)N[C@@H](C)C(=O)N[C@@H](Cc1ccccc1)C(N)=O)C(C)C)[C@@H](C)O)C(C)C
# B2: SEQ ID NO 944 (peptide)
# peptide: Ac-WVTH[Cit]LAGELS[hArg]KGGVV[hArg]KNFVPTDVG[Oic][1Nal]AF-NH2
# modifications: lactam 9-13
# SMILES: CC(=O)N[C@@H](Cc1c[nH]c2ccccc12)C(=O)N[C@H](C(=O)N[C@H](C(=O)N[C@@H](Cc1c[nH]cn1)C(=O)N[C@@H](CCCNC(N)=O)C(=O)N[C@@H](CC(C)C)C(=O)N[C@@H](C)C(=O)NCC(=O)N[C@H]1CCC(=O)NCCCC[C@@H](C(=O)NCC(=O)NCC(=O)N[C@H](C(=O)N[C@H](C(=O)N[C@@H](CCCCNC(=N)N)C(=O)N[C@@H](CCCCN)C(=O)N[C@@H](CC(N)=O)C(=O)N[C@@H](Cc2ccccc2)C(=O)N[C@H](C(=O)N2CCC[C@H]2C(=O)N[C@H](C(=O)N[C@@H](CC(=O)O)C(=O)N[C@H](C(=O)NCC(=O)N2[C@H](C(=O)N[C@@H](Cc3cccc4ccccc34)C(=O)N[C@@H](C)C(=O)N[C@@H](Cc3ccccc3)C(N)=O)C[C@@H]3CCCC[C@@H]32)C(C)C)[C@@H](C)O)C(C)C)C(C)C)C(C)C)NC(=O)[C@H](CCCCNC(=N)N)NC(=O)[C@H](CO)NC(=O)[C@H](CC(C)C)NC1=O)[C@@H](C)O)C(C)C
# B3: PEG-peptide of SEQ ID NO 865 (peptide)
# peptide: WVTHXLAGLLSRSGGVVRKNFVPTDVGPFAF
# modifications: Ac-WVTH[hArg]LAGLLSRSGGVVRKNFVPTDVGPFAF-NH2; PEG-conjugated (Table 2C: in most cases at Lys^25)
# B4: PEG-peptide of SEQ ID NO 864 (peptide)
# peptide: B3 peptide with X5R, R12X
# modifications: Ac-WVTHRLAGLLS[hArg]SGGVVRKNFVPTDVGPFAF-NH2; PEG-conjugated (Table 2C: in most cases at Lys^25)
# B5: PEG-peptide of SEQ ID NO 861 (peptide)
# peptide: B3 peptide
# modifications: Ac-WVTH[Cit]LAGLLSRSGGVVRKNFVPTDVGPFAF-NH2; PEG-conjugated (Table 2C: in most cases at Lys^25)
# B6: PEG-peptide of SEQ ID NO 862 (peptide)
# peptide: B3 peptide with X5R, R12X
# modifications: Ac-WVTHRLAGLLS[Cit]SGGVVRKNFVPTDVGPFAF-NH2; PEG-conjugated (Table 2C: in most cases at Lys^25)
# B7: SEQ ID NO 945 (peptide)
# peptide: Ac-KWVTH[Cit]LAGLLS[Cit]SGGVVRKNFVPTDVGPKAF-NH2
# SMILES: CC(=O)N[C@@H](CCCCN)C(=O)N[C@@H](Cc1c[nH]c2ccccc12)C(=O)N[C@H](C(=O)N[C@H](C(=O)N[C@@H](Cc1c[nH]cn1)C(=O)N[C@@H](CCCNC(N)=O)C(=O)N[C@@H](CC(C)C)C(=O)N[C@@H](C)C(=O)NCC(=O)N[C@@H](CC(C)C)C(=O)N[C@@H](CC(C)C)C(=O)N[C@@H](CO)C(=O)N[C@@H](CCCNC(N)=O)C(=O)N[C@@H](CO)C(=O)NCC(=O)NCC(=O)N[C@H](C(=O)N[C@H](C(=O)N[C@@H](CCCNC(=N)N)C(=O)N[C@@H](CCCCN)C(=O)N[C@@H](CC(N)=O)C(=O)N[C@@H](Cc1ccccc1)C(=O)N[C@H](C(=O)N1CCC[C@H]1C(=O)N[C@H](C(=O)N[C@@H](CC(=O)O)C(=O)N[C@H](C(=O)NCC(=O)N1CCC[C@H]1C(=O)N[C@@H](CCCCN)C(=O)N[C@@H](C)C(=O)N[C@@H](Cc1ccccc1)C(N)=O)C(C)C)[C@@H](C)O)C(C)C)C(C)C)C(C)C)[C@@H](C)O)C(C)C
# B8: SEQ ID NO 942 (peptide)
# peptide: Ac-WVTH[hArg]LEGLLK[Cit]SGGVV[hArg]KNFVPTDVG[Oic]FAF-NH2
# modifications: lactam (positions not given here); not fully specified; printed as Ac-WVTH[hArg]LEGLLK[Cit]SGGVV[hArg]KNFVPTDVG[Oic]FAF-NH2
# Molecular target: CGRP1 receptor (CRLR/RAMP1 complex) of human neuroblastoma SK-N-MC cells (human, UniProt Q16602 23-461; O60894 27-148)
# Test: cell-based or functional assay
# CGRP1 receptor (CRLR/RAMP1 complex) of human neuroblastoma SK-N-MC cells, sequence (Q16602 23-461, chain 1 of 2): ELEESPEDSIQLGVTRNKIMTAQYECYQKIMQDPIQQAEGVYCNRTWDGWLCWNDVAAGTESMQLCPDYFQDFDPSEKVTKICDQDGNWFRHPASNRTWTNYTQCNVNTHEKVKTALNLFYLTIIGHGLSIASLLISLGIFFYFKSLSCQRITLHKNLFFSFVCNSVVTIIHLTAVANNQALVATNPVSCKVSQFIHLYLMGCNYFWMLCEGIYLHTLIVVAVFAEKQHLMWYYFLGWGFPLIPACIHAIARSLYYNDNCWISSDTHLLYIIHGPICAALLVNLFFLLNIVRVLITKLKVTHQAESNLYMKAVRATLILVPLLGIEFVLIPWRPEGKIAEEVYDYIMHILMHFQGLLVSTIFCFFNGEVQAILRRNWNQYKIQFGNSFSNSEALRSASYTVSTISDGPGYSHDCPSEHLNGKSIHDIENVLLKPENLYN
# CGRP1 receptor (CRLR/RAMP1 complex) of human neuroblastoma SK-N-MC cells, sequence (O60894 27-148, chain 2 of 2): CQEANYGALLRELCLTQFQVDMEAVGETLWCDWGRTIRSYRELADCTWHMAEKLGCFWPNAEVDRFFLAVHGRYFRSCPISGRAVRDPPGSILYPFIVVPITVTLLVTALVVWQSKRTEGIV
Binder,Peptide IC50 [nM],PEG-peptide IC50 [nM]
B1,1.85,–
"Ac-WVTHQLAGLLSQSGGVVRKNFVPTDVGPFAF-NH2 (also: PEG-conjugated, in most cases at Lys25) [PEG-peptide of SEQ ID NO 857]",–,6.21
"Ac-WVTHRLAGLLPRSGGVVRKNFVPTDVGPFAF-NH2 (also: PEG-conjugated, in most cases at Lys25) [PEG-peptide of SEQ ID NO 858]",–,5
Ac-WVTH[Cit]LAGLLS[Cit]SGGVVRKNFVPTDVG[Tic]FAF-NH2 [SEQ ID NO 956],3.02,–
Ac-WVTHRLAGLLPRSGGVVRKNFVPTDVGPFAF-NH2 [SEQ ID NO 858],1.3,–
Ac-WVTHQLAGLLSQSGGVVRKNFVPTDVGPFAF-NH2 [SEQ ID NO 857],0.53,–
B2,0.85,–
WVTHXLAGLLSXSGGVVXKNFVPTDVGPFAF (Ac-WVTH[Cit]LAGLLS[Cit]SGGVV[3G-Dpr]KNFVPTDVGPFAF-NH2) [SEQ ID NO 938],1.39,–
WVTHXLAGLLSXSGGVVRKNFVPTDVGPXAF (Ac-WVTH[Cit]LAGLLS[Cit]SGGVVRKNFVPTDVGP[Tic]AF-NH2) [SEQ ID NO 962],10.1,–
WVTHXLAGLLSXSGGVVXKNFVPTDVGPXAF (Ac-WVTH[Cit]LAGLLS[Cit]SGGVV[hArg]KNFVPTDVGP[1-Nal]AF-NH2) [SEQ ID NO 960],2.24,–
WVTHXLAGLLSXSGGVVXKNFVXTDVGPXAX (Ac-WVTH[Cit]LAGLLS[Cit]SGGVV[hArg]KNFV[Oic]TDVGP[1-Nal]A[2-Nal]-NH2) [SEQ ID NO 949],2.73,–
WVTHXLAGLLSXSGGVVXKNFVXTDVGXFAX (Ac-WVTH[Cit]LAGLLS[Cit]SGGVV[hArg]KNFV[Oic]TDVG[Oic]FA[2-Nal]-NH2) [SEQ ID NO 948],2.57,–
WVTHXLAGLLSXSGGVVXKNFVXTDVGPFAX (Ac-WVTH[Cit]LAGLLS[Cit]SGGVV[hArg]KNFV[Oic]TDVGPFA[2-Nal]-NH2) [SEQ ID NO 951],3.22,–
WVTHXLAGLLSXSGGVVXKNFVPTDVGPFAF (Ac-WVTH[Cit]LAGLLS[Cit]SGGVV[hArg](30 KPEGald)NFVPTDVGPFAF-NH2) [PEG-peptide of SEQ ID NO 941],–,7.76
B3,–,0.36
B4,–,0.33
B5,–,2.08
WVTHXLAGLLSXSGGVVXKNFVPTDVGPXAF (Ac-WVTH[Cit]LAGLLS[Cit]SGGVV[hArg]KNFVPTDVGP[Tic]AF-NH2) [SEQ ID NO 947],89.9,–
WVTHRLAGLLSXSGGVVRKNFVPTDVGPFAF (Ac-WVTHRLAGLLS[hArg]SGGVVRKNFVPTDVGPFAF-NH2) [SEQ ID NO 864],0.57,–

Binder,Peptide IC50 [nM],PEG-peptide IC50 [nM]
WVTHXLAGLLSRSGGVVRKNFVPTDVGPFAF (Ac-WVTH[hArg]LAGLLSRSGGVVRKNFVPTDVGPFAF-NH2) [SEQ ID NO 865],0.44,–
WVTHXLAGLLSRSGGVVRKNFVPTDVGPFAF (Ac-WVTH[Cit]LAGLLSRSGGVVRKNFVPTDVGPFAF-NH2) [SEQ ID NO 861],0.57,–
B6,–,0.96
WVTHXLAGLLSXSGGVVXKNXVPTDVGXFAX (Ac-WVTH[Cit]LAGLLS[Cit]SGGVV[hArg]KN[2-Nal]VPTDVG[Oic]FA[2-Nal]-NH2) [SEQ ID NO 954],3.45,–
WVTHXLAGLLSXSGGVVXKNFVXTDVGPXAF (Ac-WVTH[Cit]LAGLLS[Cit]SGGVV[hArg]KNFV[Oic]TDVGP[Bip]AF-NH2) [SEQ ID NO 950],3.85,–
WVTHRLAGLLSXSGGVVRKNFVPTDVGPFAF (Ac-WVTHRLAGLLS[Cit]SGGVVRKNFVPTDVGPFAF-NH2) [SEQ ID NO 862],0.58,–
WVTHXLAGLLSXSGGVVXKNXVXTDVGPXAF (Ac-WVTH[Cit]LAGLLS[Cit]SGGVV[hArg]KN[pI-Phe]V[Oic]TDVGP[pI-Phe]AF-NH2) [SEQ ID NO 952],2.34,–
Ac-WVTHRLAGLLSRPGGVVRKNFVPTDVGPFAF-NH2 [SEQ ID NO 860],1.42,–
Ac-WVTH[Cit]LAGELS[Cit]KGGVV[hArg]KNFVPTDVG[Oic]FAF-NH2 [SEQ ID NO 943],1.45,–
"Ac-WVTHRLAGLLSQSGGVVRKNFVPTDVGPFAF-NH2 (also: PEG-conjugated, in most cases at Lys25) [PEG-peptide of SEQ ID NO 856]",–,0.46
"Ac-WVTHRLAGLLSRPGGVVRKNFVPTDVGPFAF-NH2 (also: PEG-conjugated, in most cases at Lys25) [PEG-peptide of SEQ ID NO 860]",–,16.7
"Ac-WVTHRLAGLASRPGGVVRKNFVPTDVGPFAF-NH2 (also: PEG-conjugated, in most cases at Lys25) [PEG-peptide of SEQ ID NO 859]",–,60.5
B7,13,–
Ac-WVTHRLAGLLSQSGGVVRKNFVPTDVGPFAF-NH2 [SEQ ID NO 856],0.47,–
Ac-WVTHRLAGLASRPGGVVRKNFVPTDVGPFAF-NH2 [SEQ ID NO 859],1.41,–
B8,0.83,–
Ac-WVTH[Cit]LAGLLS[Cit]SGGVVRKNFVPTDVG[Tic]FAF-NH2 [SEQ ID NO 957],4.32,–
WVTHXLAGLLSXSGGVVXKNXVXTDVGXFAX (Ac-WVTH[Cit]LAGLLS[Cit]SGGVV[hArg]KN[2-Nal]V[Oic]TDVG[Oic]FA[2-Nal]-NH2) [SEQ ID NO 955],3.57,–
